Test results reported in IntAct's records for PubMed 31515488.

B1: NUT family member 2F (Homo sapiens), A1L443 (parent)
chain: MASNGAYPVLGPGVTVNPGTSLSVFTALPFATPAPGPAHRPPLVTAVVPPAGPLVLSAFPSTPLVAGQDGRGPSGAGASNVFVQMRTEVGPVKPPQAQTLILTQAPLVWQAPGTLCGGVMCPPPLLLAAAPGVPVTSAQVVGGTQACEGGWSHGLPLPPPPPAAQVAPIVSPGNARPWPQGAHGEGSLAPSQAKARPDDSCKPKSVYENFRLWQHYKPLARRHLPQSPDTEALSCFLIPVLRSLARRKPTMTLEEGLWQAMREWQHTSNFDRMIFYEMAEKFLEFEAEEEMQIQKSQWMKGPQSLPPPAPPRLEPRGPPAPEVVKQPVYLPSKDGPKAPTACLPPPRPQRPAETKAHLPPPRPQRPAETNAHLPPPRPQRPAETKVPEEIPPEVVQEYVDIMEELLGSHPGDTGEPEGQREKGKVEQPQEEDGITSDPGLLSYIDKLCSQEDFVTKVEAVIHPRFLEELLSPDPQMDFLALSQELEQEEGLTLAQLVEKRLLSLKEKGCGRAAPRHGTARLDSSPSEFAAGQEAAREVPDPQQRVSVETSPPQTAAQDPQGQGRVRTGMARSEDPAVLLGCQDSPRLKAVRPTSPPQDHRPTCPGLGTKDALGLPGESPVKESHGLAKGSSEETELPGMVYVVGSHHRLRPWRLSQSPVPSSGLLSPGGRGPQGALQSPSAQKRGLSPSPSPASKSKKRPLFGSPSPAEKTPHPGPGLRVSGEQSLAWGLGGPSQSQKRKGDPLASRRKKKRHCSQ
partner: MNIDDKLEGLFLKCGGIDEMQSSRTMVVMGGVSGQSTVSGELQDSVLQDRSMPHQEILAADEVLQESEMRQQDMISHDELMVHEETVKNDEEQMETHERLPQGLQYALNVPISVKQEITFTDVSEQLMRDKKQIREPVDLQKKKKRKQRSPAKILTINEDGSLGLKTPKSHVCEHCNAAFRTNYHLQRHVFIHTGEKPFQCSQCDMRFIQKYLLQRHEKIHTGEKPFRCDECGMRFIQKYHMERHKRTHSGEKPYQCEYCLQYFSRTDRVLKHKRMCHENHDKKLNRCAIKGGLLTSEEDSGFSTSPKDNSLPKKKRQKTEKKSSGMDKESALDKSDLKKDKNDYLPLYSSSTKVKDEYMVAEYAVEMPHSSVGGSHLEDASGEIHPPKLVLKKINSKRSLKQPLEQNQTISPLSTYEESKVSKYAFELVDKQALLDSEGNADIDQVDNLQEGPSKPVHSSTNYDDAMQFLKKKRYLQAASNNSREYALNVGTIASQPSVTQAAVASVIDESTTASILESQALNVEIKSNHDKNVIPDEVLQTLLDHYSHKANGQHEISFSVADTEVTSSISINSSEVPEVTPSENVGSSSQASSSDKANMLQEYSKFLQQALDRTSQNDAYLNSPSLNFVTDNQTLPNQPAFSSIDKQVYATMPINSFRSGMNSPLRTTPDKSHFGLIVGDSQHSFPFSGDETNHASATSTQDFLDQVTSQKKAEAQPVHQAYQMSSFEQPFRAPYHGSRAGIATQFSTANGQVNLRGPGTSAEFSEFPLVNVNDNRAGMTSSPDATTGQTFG
B2: Zinc finger protein Aiolos (Homo sapiens), Q9UKT9 (parent)
chain: MEDIQTNAELKSTQEQSVPAESAAVLNDYSLTKSHEMENVDSGEGPANEDEDIGDDSMKVKDEYSERDENVLKSEPMGNAEEPEIPYSYSREYNEYENIKLERHVVSFDSSRPTSGKMNCDVCGLSCISFNVLMVHKRSHTGERPFQCNQCGASFTQKGNLLRHIKLHTGEKPFKCHLCNYACQRRDALTGHLRTHSVEKPYKCEFCGRSYKQRSSLEEHKERCRTFLQSTDPGDTASAEARHIKAEMGSERALVLDRLASNVAKRKSSMPQKFIGEKRHCFDVNYNSSYMYEKESELIQTRMMDQAINNAISYLGAEALRPLVQTPPAPTSEMVPVISSMYPIALTRAEMSNGAPQELEKKSIHLPEKSVPSERGLSPNNSGHDSTDTDSNHEERQNHIYQQNHMVLSRARNGMPLLKEVPRSYELLKPPPICPRDSVKVINKEGEVMDVYRCDHCRVLFLDYVMFTIHMGCHGFRDPFECNMCGYRSHDRYEFSSHIARGEHRALLK
partner: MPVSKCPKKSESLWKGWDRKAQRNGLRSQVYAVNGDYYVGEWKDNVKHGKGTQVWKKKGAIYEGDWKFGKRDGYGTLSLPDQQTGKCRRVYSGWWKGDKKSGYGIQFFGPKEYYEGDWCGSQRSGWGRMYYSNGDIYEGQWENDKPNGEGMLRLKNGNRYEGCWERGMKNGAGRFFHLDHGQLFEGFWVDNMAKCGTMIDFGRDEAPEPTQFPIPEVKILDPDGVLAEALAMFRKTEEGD
B3: Microtubule-associated tumor suppressor candidate 2 (Homo sapiens), Q5JR59-3 (parent)
chain: MGHCCCKPYNCLQCLDKTNESALVKEKELSIELANIRDEVAFHTAKCEKLQKEKEELERRFEDEVKRLGWQQQAELQELEERLQLQFEAEMARLQEEHGDQLLSIRCQHQEQVEDLTASHDAALLEMENNHTVAITILQDDHDHKVQELMSTHELEKKELEENFEKLRLSLQDQVDTLTFQSQSLRDRARRFEEALRKNTEEQLEIALAPYQHLEEDMKSLKQVLEMKNQQIHEQEKKILELEKLAEKNIILEEKIQVLQQQNEDLKARIDQNTVVTRQLSEENANLQEYVEKETQEKKRLSRTNEELLWKLQTGDPTSPIKLSPTSPVYRGSSSGPSSPARVSTTPR
partner: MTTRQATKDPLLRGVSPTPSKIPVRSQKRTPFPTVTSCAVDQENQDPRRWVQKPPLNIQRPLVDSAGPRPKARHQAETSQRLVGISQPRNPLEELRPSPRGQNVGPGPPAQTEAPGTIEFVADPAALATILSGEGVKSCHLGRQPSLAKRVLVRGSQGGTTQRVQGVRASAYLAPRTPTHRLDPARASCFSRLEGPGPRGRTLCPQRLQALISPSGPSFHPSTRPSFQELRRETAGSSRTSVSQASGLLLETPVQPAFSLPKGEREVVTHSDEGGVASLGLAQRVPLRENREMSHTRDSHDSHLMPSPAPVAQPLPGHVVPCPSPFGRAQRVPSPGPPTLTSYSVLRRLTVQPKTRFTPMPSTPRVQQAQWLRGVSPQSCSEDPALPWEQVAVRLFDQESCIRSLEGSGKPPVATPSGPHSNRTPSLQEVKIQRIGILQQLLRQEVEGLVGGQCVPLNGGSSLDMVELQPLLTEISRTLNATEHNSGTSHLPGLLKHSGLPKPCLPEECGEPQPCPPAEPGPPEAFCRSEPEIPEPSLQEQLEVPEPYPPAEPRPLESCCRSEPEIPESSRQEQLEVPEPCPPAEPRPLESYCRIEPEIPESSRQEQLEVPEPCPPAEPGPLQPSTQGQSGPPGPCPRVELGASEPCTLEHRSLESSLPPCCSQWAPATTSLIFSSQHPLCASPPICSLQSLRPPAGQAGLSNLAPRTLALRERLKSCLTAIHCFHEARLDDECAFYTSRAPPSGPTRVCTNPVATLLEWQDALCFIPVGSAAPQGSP
B4: Microtubule-associated tumor suppressor candidate 2 (Homo sapiens), Q5JR59-3 (parent)
chain: B3 chain
partner: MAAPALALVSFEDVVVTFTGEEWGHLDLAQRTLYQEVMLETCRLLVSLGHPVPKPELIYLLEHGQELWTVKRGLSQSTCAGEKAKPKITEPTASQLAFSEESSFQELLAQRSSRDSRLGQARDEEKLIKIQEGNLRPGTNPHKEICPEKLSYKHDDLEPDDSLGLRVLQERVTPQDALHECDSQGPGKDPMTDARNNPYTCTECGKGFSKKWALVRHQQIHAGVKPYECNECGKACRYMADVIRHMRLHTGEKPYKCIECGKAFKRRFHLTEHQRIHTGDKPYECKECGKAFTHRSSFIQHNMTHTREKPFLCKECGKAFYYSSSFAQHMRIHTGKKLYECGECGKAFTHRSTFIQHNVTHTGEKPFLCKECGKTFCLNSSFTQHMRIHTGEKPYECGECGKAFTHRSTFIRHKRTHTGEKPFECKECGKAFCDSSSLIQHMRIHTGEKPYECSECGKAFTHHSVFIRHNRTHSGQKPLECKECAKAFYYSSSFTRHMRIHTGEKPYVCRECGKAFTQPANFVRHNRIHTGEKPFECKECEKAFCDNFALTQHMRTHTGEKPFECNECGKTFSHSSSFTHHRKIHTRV
B5: Interleukin-1 receptor-associated kinase 4 (Homo sapiens), Q9NWZ3 (parent)
chain: MNKPITPSTYVRCLNVGLIRKLSDFIDPQEGWKKLAVAIKKPSGDDRYNQFHIRRFEALLQTGKSPTSELLFDWGTTNCTVGDLVDLLIQNEFFAPASLLLPDAVPKTANTLPSKEAITVQQKQMPFCDKDRTLMTPVQNLEQSYMPPDSSSPENKSLEVSDTRFHSFSFYELKNVTNNFDERPISVGGNKMGEGGFGVVYKGYVNNTTVAVKKLAAMVDITTEELKQQFDQEIKVMAKCQHENLVELLGFSSDGDDLCLVYVYMPNGSLLDRLSCLDGTPPLSWHMRCKIAQGAANGINFLHENHHIHRDIKSANILLDEAFTAKISDFGLARASEKFAQTVMTSRIVGTTAYMAPEALRGEITPKSDIYSFGVVLLEIITGLPAVDEHREPQLLLDIKEEIEDEEKTIEDYIDKKMNDADSTSVEAMYSVASQCLHEKKNKRPDIKKVQQLLQEMTAS

Variants of: B1
Settings: with zn148_human ZNF148, Q9UQR1

Variant	effect of a mutation on the interaction
N370K	with no effect

Variants of: B2
Settings: with morn3_human MORN3, Q6PF18

Variant	effect of a mutation on the interaction
A24V	with no effect
N119D	with no effect

Variants of: B3
Settings: with troap_human TROAP

Variant	effect of a mutation on the interaction
MGHCCCKPYNCLQCLDKTNESALVKEKELSIELANIRDEVAFHTAKCEKLQKEKEELERRFEDEVKRLGWQQQAELQELEERLQLQFEVEMARLQEEHGDQLLSIRCQHQEQVEDLTASHDAALLEMENNHTVAITILQDDHDHKVQELMSTHELEKKELEENFEKLRLSLQDQVDTLTFQSQSLRDRARRFEEALRKNTEEQLEIALAPYQHLEEDMKSLKQVLEMKNQQIHEQEKKILELEKLAEKNIILEEKIQVLQQQNEDLKARIDQNTVVTRQLSEENANLQEYVEKETQEKKRLSRTNEELLWKLQTGDPTSPIKLSPTSPVYRGSSSGPSSPARVSTTPR [A89V]	with no effect

Variants of: B4
Settings: with zn599_human ZNF599, Q96NL3

Variant	effect of a mutation on the interaction
MGHCCCKPYNCLQCLDKTNESALVKEKELSIELANIRDEVAFHTAKCEKLQKEKEELERRFEDEVKRLGWQQQAELQELEERLQLQFEVEMARLQEEHGDQLLSIRCQHQEQVEDLTASHDAALLEMENNHTVAITILQDDHDHKVQELMSTHELEKKELEENFEKLRLSLQDQVDTLTFQSQSLRDRARRFEEALRKNTEEQLEIALAPYQHLEEDMKSLKQVLEMKNQQIHEQEKKILELEKLAEKNIILEEKIQVLQQQNEDLKARIDQNTVVTRQLSEENANLQEYVEKETQEKKRLSRTNEELLWKLQTGDPTSPIKLSPTSPVYRGSSSGPSSPARVSTTPR [A89V]	with no effect

Variants of: B5
Settings: with myd88_human MYD88, Q99836
myd88_human MYD88, Q99836, sequence (Q99836 whole entry): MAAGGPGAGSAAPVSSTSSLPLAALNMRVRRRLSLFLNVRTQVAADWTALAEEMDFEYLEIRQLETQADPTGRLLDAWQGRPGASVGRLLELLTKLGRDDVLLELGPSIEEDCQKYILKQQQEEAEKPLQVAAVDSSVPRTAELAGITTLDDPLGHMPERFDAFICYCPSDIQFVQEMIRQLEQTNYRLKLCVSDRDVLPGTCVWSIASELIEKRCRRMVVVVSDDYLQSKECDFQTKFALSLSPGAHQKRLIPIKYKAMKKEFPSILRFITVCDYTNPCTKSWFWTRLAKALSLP

Variant	effect of a mutation on the interaction
MNKPITPSTYVRCLNVGLIRKLSDFIDPQEGWKKLAVAIKKPSGDDRYNQFHIRRFEALLQTGKSPTSELLFDWGTTNCTVGDLVDLLIQNEFFAPASLLLPDAVPKTANTLPSKEAITVQQKQMPFCDKDRTLMTPVQNLEQSYMPPDSSSPENKSLEVSDTRFHSFSFYELKNVTNNFDERPISVGGNKMGEGGFGVVYKGYVNNTTVAVKKLAAMVDITTEELKQQFDQEIKVMAKCQHENLVELLGFSSDGDDLCLVYVYMPNGSLLDRLSCLDGTPPLSWHMRCKIAQGAANGINFLHENHHIHRDIKSANILLDEAFTAKISDFGLARASEKFAQTVMTSRIVGTTAYMAPEALRGEITPKSDIYSFGVVLLEIITGLPAVDEHREPQLLLDIKEEIEDEEKTIEDYIDKKMNDADSTSVETMYSVASQCLHEKKNKRPDIKKVQQLLQEMTAS [A428T]	with no effect
MNKPITPSTYVCCLNVGLIRKLSDFIDPQEGWKKLAVAIKKPSGDDRYNQFHIRRFEALLQTGKSPTSELLFDWGTTNCTVGDLVDLLIQNEFFAPASLLLPDAVPKTANTLPSKEAITVQQKQMPFCDKDRTLMTPVQNLEQSYMPPDSSSPENKSLEVSDTRFHSFSFYELKNVTNNFDERPISVGGNKMGEGGFGVVYKGYVNNTTVAVKKLAAMVDITTEELKQQFDQEIKVMAKCQHENLVELLGFSSDGDDLCLVYVYMPNGSLLDRLSCLDGTPPLSWHMRCKIAQGAANGINFLHENHHIHRDIKSANILLDEAFTAKISDFGLARASEKFAQTVMTSRIVGTTAYMAPEALRGEITPKSDIYSFGVVLLEIITGLPAVDEHREPQLLLDIKEEIEDEEKTIEDYIDKKMNDADSTSVEAMYSVASQCLHEKKNKRPDIKKVQQLLQEMTAS [R12C]	disrupting interaction strength
MNKPITPSTYVRCLNVGLIWKLSDFIDPQEGWKKLAVAIKKPSGDDRYNQFHIRRFEALLQTGKSPTSELLFDWGTTNCTVGDLVDLLIQNEFFAPASLLLPDAVPKTANTLPSKEAITVQQKQMPFCDKDRTLMTPVQNLEQSYMPPDSSSPENKSLEVSDTRFHSFSFYELKNVTNNFDERPISVGGNKMGEGGFGVVYKGYVNNTTVAVKKLAAMVDITTEELKQQFDQEIKVMAKCQHENLVELLGFSSDGDDLCLVYVYMPNGSLLDRLSCLDGTPPLSWHMRCKIAQGAANGINFLHENHHIHRDIKSANILLDEAFTAKISDFGLARASEKFAQTVMTSRIVGTTAYMAPEALRGEITPKSDIYSFGVVLLEIITGLPAVDEHREPQLLLDIKEEIEDEEKTIEDYIDKKMNDADSTSVEAMYSVASQCLHEKKNKRPDIKKVQQLLQEMTAS [R20W]	with no effect
